Assay: Enzymatic activity of tmpk mutants for AZT-MP
Type: biochemical, human

B1: R200A: modified human tmpk, R to A mutation at amino acid position 200 (SEQ ID NOS: 15 and 16) (protein, UniProt P23919 2-212, looked up, variant R200A)
Thymidylate kinase: AARRGALIVLEGVDRAGKSTQSRKLVEALCAAGHRAELLRFPERSTEIGKLLSSYLQKKSDVEDHSVHLLFSANRWEQVPLIKEKLSQGVTLVVDRYAFSGVAFTGAKENFSLDWCKQPDVGLPKPDLVLFLQLQLADAAKRGAFGHERYENGAFQERALRCFHQLMKDTTLNWKMVDASKSIEAVHEDIRVLSEDAIATATEKPLGELWK
For B1, the “enzymatic activity / catalytic conversion compared to wild-type tmpk (in words)” value was “superior enzymatic activity”.
